Measurements as given in article PMC11508082.

Target: T1, PdhR-his (Escherichia coli O157:H7 (EHEC) TUV93-0?) (UniProt P0ACM1)
T1 sequence: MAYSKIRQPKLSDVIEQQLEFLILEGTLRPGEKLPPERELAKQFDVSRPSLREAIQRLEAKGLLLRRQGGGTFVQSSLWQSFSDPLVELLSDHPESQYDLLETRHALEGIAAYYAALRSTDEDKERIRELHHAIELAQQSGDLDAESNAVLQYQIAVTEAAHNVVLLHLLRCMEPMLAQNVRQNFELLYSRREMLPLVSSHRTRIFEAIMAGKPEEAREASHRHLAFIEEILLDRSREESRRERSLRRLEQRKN
Test: EMSA

Sequence	binding
GGTTCCGATAGAAAGTCCTGGAACAACCGGACCAAAAAGAAAAACCTACCGAGTTGGTAATGGTATTGTGGGACAGTCTAATATCTGGAACGAAATGATCATGAGGCGGAAAAAGGAGAGTTA (double strand) [grlA promoter probe]	no binding
TGTGCACAGTTTCATGATTTCAATCAAAACCTGTATGGACATAAGGTGAATACTTTGTTACTTTAGCGTCACAGACATGAAATTGGTAAGACCAATTGACTTCGGCAAGTGGCTTAAGACAGGAACTCATGGCCTACAGCAAAATCCGCCAACCAAAACTCTCCGATGTGATTGAGCAGC (double strand) [PpdhR promoter probe]	binds
